First the molecules themselves.
B2: human ASPP2^920-1120 (domain or fragment, UniProt Q13625 920-1120, looked up)
chain: MRVKFNPLALLLDSSLEGEFDLVQRIIYEVDDPSLPNDEGITALHNAVCAGHTEIVKFLVQFGVNVNAADSDGWTPLHCAASCNNVQVCKFLVESGAAVFAMTYSDMQTAADKCEEMEEGYTQCSQFLYGVQEKMGIMNKGVIYALWDYEPQNDDELPMKEGDCMTIIHREDEDEIEWWWARLNDKEGYVPRNLLGLYPRI
notes: ASPP2, human, residues 920-1120 (RVxF motif, ankyrin repeats, SH3 domain); pGEX-6P2 construct; source: E. coli Rosetta (DE3) pLysS, purified (glutathione-Sepharose, 3C cleavage, SEC); for the crystal co-expressed with PP1α^7-330 in E. coli BL21 (DE3)
B4: ASPP2^D1091G/E1092P (domain or fragment, human, UniProt Q13625 920-1120, looked up)
chain: MRVKFNPLALLLDSSLEGEFDLVQRIIYEVDDPSLPNDEGITALHNAVCAGHTEIVKFLVQFGVNVNAADSDGWTPLHCAASCNNVQVCKFLVESGAAVFAMTYSDMQTAADKCEEMEEGYTQCSQFLYGVQEKMGIMNKGVIYALWDYEPQNDDELPMKEGDCMTIIHREGPDEIEWWWARLNDKEGYVPRNLLGLYPRI
notes: ASPP2, human, residues 920-1120 with n-Src loop mutations; also called double mutant mimicking the human iASPP n-Src loop
B15: human iASPP^621-828 (domain or fragment, UniProt Q8WUF5 621-828, looked up)
chain: RRARLNPLVLLLDAALTGELEVVQQAVKEMNDPSQPNEEGITALHNAICGANYSIVDFLITAGANVNSPDSHGWTPLHCAASCNDTVICMALVQHGAAIFATTLSDGATAFEKCDPYREGYADCATYLADVEQSMGLMNSGAVYALWDYSAEFGDELSFREGESVTVLRRDGPEETDWWWAALHGQEGYVPRNYFGLFPRVKPQRSKV
notes: the protein preparation paragraph prints iASPP^608-828 in pGEX-6P2

Holding throughout (details): both partners purified
The target in the assay “human ASPP2^920-1120” is B2. The experiment in a line: ITC; PP1 peptides (350–550 μM) titrated into ASPP2^920-1120 (40 μM), 20 °C; 25 mM Tris pH 8.0, 200 mM NaCl, 0.5 mM TCEP; single binding site model; ASPP2 mutants and iASPP in place of ASPP2 for Fig. 6e.
The target in assay [1] is T1, human PP1α^7-330 (human, UniProt P62136 7-330).
T1 construct: PP1 catalytic subunit alpha, human, residues 7-330; His6 tag kept for ITC and BLI (captured on Ni-NTA sensors); also called full-length PP1α (as the text calls it); source: for the crystal co-expressed with ASPP2^920-1120 in E. coli BL21 (DE3), purified (Ni-NTA, glutathione-Sepharose, SEC)
The experiment in a line: ITC; ASPP2 (25 μM) titrated into His6-tagged PP1 (3–4 μM), 25 °C; 20 mM Tris pH 8, 500 mM NaCl, 0.5 mM TCEP, 1 mM MnCl2.

Assay [2] addresses T1, human PP1α^7-330. The experiment in a line: BLI; HIS tagged PP1α, PP1β or PP1γ1 (50 μg/ml) immobilised on Ni-NTA biosensors, ASPP in solution in kinetics buffer, 25 °C, 1000 rpm; global fit 1:1 model; apparent KD.
In a further assay the target is T2, human PP1γ1^7-323 (human, UniProt P36873 7-323).
T2 construct: source: bacterial culture with GroEL/GroES chaperone; purification for BLI not described
Described as above.

Another assay concerns the target T3, human PP1β^6-327 (human, UniProt P62140 6-327).
T3 construct: PP1 catalytic subunit beta, human, residues 6-327; source: bacterial culture with GroEL/GroES chaperone; purification for BLI not described
The assay is described as above.

The assay “ASPP2^D1091G/E1092P” deals with B4. Nature of the assay: ITC; PP1 peptides (350–550 μM) titrated into ASPP2^920-1120 (40 μM), 20 °C; 25 mM Tris pH 8.0, 200 mM NaCl, 0.5 mM TCEP; single binding site model; ASPP2 mutants and iASPP in place of ASPP2 for Fig. 6e.
The assay “human iASPP^621-828” deals with B15. The assay is described as above.

B1: PP1β^297-327 C-tail peptide (peptide, UniProt P62140 297-327, looked up)
peptide: PSEKKAKYQYGGLNSGRPVTPPRTANPPKKR
notes: PP1 catalytic subunit beta, human, residues 297-327; source: synthetic peptide (LRI peptide synthesis core facility)
On to B1, for which the “fold lower affinity than PP1α^301-330 (143 nM)” value with human ASPP2^920-1120 is 7 fold. B2: the values for the Kd with human PP1α^7-330 [1] and with human PP1α^7-330 [2] were 6.1 nM and 13.6 nM, respectively. Besides, the “half-life of the complex” value in the assay with human PP1α^7-330 [2] was 0.517 min. Also, the “fold lower affinity than for PP1α (13.6 nM)” value was 14 fold in the assay with human PP1γ1^7-323 and 13 fold in the assay with human PP1β^6-327.

B3: ASPP2^D1093S (domain or fragment, human, UniProt Q13625 920-1120, looked up)
chain: MRVKFNPLALLLDSSLEGEFDLVQRIIYEVDDPSLPNDEGITALHNAVCAGHTEIVKFLVQFGVNVNAADSDGWTPLHCAASCNNVQVCKFLVESGAAVFAMTYSDMQTAADKCEEMEEGYTQCSQFLYGVQEKMGIMNKGVIYALWDYEPQNDDELPMKEGDCMTIIHREDESEIEWWWARLNDKEGYVPRNLLGLYPRI
notes: ASPP2, human, residues 920-1120 with an n-Src loop mutation; also called single ASPP2 mutant mimicking the ASPP1 n-Src loop
For B3, in the assay with human PP1α^7-330 [2], the binding result is reported as “binds”.

Turning to B4, the binding result with human PP1α^7-330 [2] was “binds”.

B5: ASPP2^D1091K/E1092V/E1094K (recombinant fragment) (domain or fragment, human, UniProt Q13625 920-1120, looked up)
chain: MRVKFNPLALLLDSSLEGEFDLVQRIIYEVDDPSLPNDEGITALHNAVCAGHTEIVKFLVQFGVNVNAADSDGWTPLHCAASCNNVQVCKFLVESGAAVFAMTYSDMQTAADKCEEMEEGYTQCSQFLYGVQEKMGIMNKGVIYALWDYEPQNDDELPMKEGDCMTIIHREKVDKIEWWWARLNDKEGYVPRNLLGLYPRI
notes: ASPP2, human, residues 920-1120 with n-Src loop mutations; also called ASPP2^KVK; triple mutant mimicking the C. elegans iASPP n-Src loop
B5: the Kd with human PP1α^7-330 [2] came to 8200 nM.

B6: ASPP2^E1090K/D1093S (domain or fragment, human, UniProt Q13625 920-1120, looked up)
chain: MRVKFNPLALLLDSSLEGEFDLVQRIIYEVDDPSLPNDEGITALHNAVCAGHTEIVKFLVQFGVNVNAADSDGWTPLHCAASCNNVQVCKFLVESGAAVFAMTYSDMQTAADKCEEMEEGYTQCSQFLYGVQEKMGIMNKGVIYALWDYEPQNDDELPMKEGDCMTIIHRKDESEIEWWWARLNDKEGYVPRNLLGLYPRI
notes: ASPP2, human, residues 920-1120 with n-Src loop mutations; also called double ASPP2 mutant mimicking the ASPP1 n-Src loop
Take B6: in the assay with human PP1α^7-330 [2], the binding result is on record as “binds”.

B7: human ASPP1^882-1090 (domain or fragment, UniProt Q96KQ4 882-1090, looked up)
chain: LRVRFNPLALLLDASLEGEFDLVQRIIYEVEDPSKPNDEGITPLHNAVCAGHHHIVKFLLDFGVNVNAADSDGWTPLHCAASCNSVHLCKQLVESGAAIFASTISDIETAADKCEEMEEGYIQCSQFLYGVQEKLGVMNKGVAYALWDYEAQNSDELSFHEGDALTILRRKDESETEWWWARLGDREGYVPKNLLGLYPRIKPRQRTLA
notes: ASPP1, human, residues 882-1090; source: pGEX-6P2 construct; expression and purification described only for ASPP2
For B7, the binding result with human PP1α^7-330 [2], with human PP1γ1^7-323 and with human PP1β^6-327 was “binds” each time.

B8: ASPP1^K1052E/S1055D (domain or fragment, human, UniProt Q96KQ4 882-1090, looked up)
chain: LRVRFNPLALLLDASLEGEFDLVQRIIYEVEDPSKPNDEGITPLHNAVCAGHHHIVKFLLDFGVNVNAADSDGWTPLHCAASCNSVHLCKQLVESGAAIFASTISDIETAADKCEEMEEGYIQCSQFLYGVQEKLGVMNKGVAYALWDYEAQNSDELSFHEGDALTILRREDEDETEWWWARLGDREGYVPKNLLGLYPRIKPRQRTLA
notes: ASPP1, human, residues 882-1090 with n-Src loop residues 1 and 4 changed to the ASPP2 residues
With B8, the binding result with human PP1α^7-330 [2] is on record as “binds”.

B9: PP1α^301-330 C-tail peptide (peptide, UniProt P62136 301-330, looked up)
peptide: KNKGKYGQFSGLNPGGRPITPPRNSAKAKK
notes: also called PP1α C-tail; source: synthetic peptide (LRI peptide synthesis core facility)
In the case of B9, the binding result with ASPP2^D1091G/E1092P is on record as “binds”. For the same molecule, the Kd amounted to 395 nM with human iASPP^621-828 and 143 nM in the assay with human ASPP2^920-1120.

B10: PP1α^301-330 K327A peptide (peptide, UniProt P62136 301-330, looked up)
peptide: KNKGKYGQFSGLNPGGRPITPPRNSAAAKK
notes: also called PP1α^K327 to alanine; source: synthetic peptide (LRI peptide synthesis core facility)
Turning to B10, the “fold decrease in affinity against PP1α^301-330” value with human ASPP2^920-1120 was 4 fold.

B11: PP1α^301-330 K329A peptide (peptide, UniProt P62136 301-330, looked up)
peptide: KNKGKYGQFSGLNPGGRPITPPRNSAKAAK
notes: source: synthetic peptide (LRI peptide synthesis core facility)
As to B11, in the assay with human ASPP2^920-1120, the binding result is given as “binds”.

B12: PP1α^301-330 K330A peptide (peptide, UniProt P62136 301-330, looked up)
peptide: KNKGKYGQFSGLNPGGRPITPPRNSAKAKA
notes: as for B11
Take B12: the binding result with human ASPP2^920-1120 was “binds”.

B13: PP1α^301-330 3KA peptide (peptide, UniProt P62136 301-330, looked up)
peptide: KNKGKYGQFSGLNPGGRPITPPRNSAAAAA
notes: also called PP1α 3KA; source: synthetic peptide (LRI peptide synthesis core facility)
Consider B13, for which the figures for the Kd with human iASPP^621-828 and with human ASPP2^920-1120 were 690 nM and 1900 nM, respectively.

B14: PP1γ2^297-324 C-tail peptide (peptide, UniProt P36873-2 297-324, looked up)
peptide: KPAEKKKPNATRPVTPPRVASGLNPSIQ
notes: PP1 catalytic subunit gamma, testis-specific isoform γ2, human, residues 297-324; source: synthetic peptide (LRI peptide synthesis core facility)
As to B14, the “fold lower affinity than PP1α^301-330 (143 nM)” value with human ASPP2^920-1120 came to 15 fold. Consider B15, for which, in the assay with human PP1α^7-330 [2], the Kd worked out at 2.6 nM, the “fold lower koff than ASPP2 on PP1α” value came out at 110 fold, the “fold lower kon than ASPP2 on PP1α” value is 7 fold and the “half-life of the complex” value stood at 58 min. For the same molecule, in the assay with human PP1γ1^7-323, the “fold preference for PP1α and PP1β over PP1γ1” value was found to be 2 fold.

B16: PP1γ1^298-323 C-tail peptide (peptide, UniProt P36873 298-323, looked up)
peptide: PAEKKKPNATRPVTPPRGMITKQAKK
notes: as for B11
With B16, in the assay with human ASPP2^920-1120, the “fold lower affinity than PP1α^301-330 (143 nM)” value is 5 fold.

B17: PP1α^317-323 core PPII motif peptide (peptide)
peptide: RPITPPR
notes: as for B11
In the assay with human ASPP2^920-1120, B17 registered a Kd of 5650 nM.

B18: PP1α^317-330 peptide (peptide)
peptide: RPITPPRNSAKAKK
notes: PP1α, human, residues 324-330; source: synthetic peptide (LRI peptide synthesis core facility)
Molecule B18 gave a Kd with human ASPP2^920-1120 of 270 nM.
